According to patent US20230159619A1, “COMPOSITIONS AND METHODS FOR REGULATING IMMUNE SYSTEM ACTIVITY” (Olema Pharmaceuticals, Inc., priority 2017, published 2023):

Columns and labels:
Assay type in all cases: cell-based, human
NFAT-Luciferase reporter [1] = test: NFAT-Luciferase reporter assay in transiently transfected Jurkat E6.1 cells (Example 3)
From the text: One outcome of T cell activation is the expression of Nuclear Factor of Activated T cells (NFAT) transcription factors. Accordingly, a construct containing a reporter gene, such as firefly luciferase (Luc), under the control of an NFAT response element can be used to assess T cell activity. Such a construct can either be transiently transfected into cells (e.g., Jurkat cells, which are an immortalized line of human T cells) or stably integrated into a cell line (e.g., a derivative Jurkat cell line). These reporter genes can be used to measure activation, or inhibition, of T cell activation pathways.
To examine whether an endoxifen-responsive dominant negative Zap-70 polypeptide could inhibit T cell activity resulting in NFAT-luciferase expression, Jurkat E6.1 cells (purchased from ATCC (Manassas, Va.)) were transiently transfected with an NFAT-Luciferase reporter construct and a test construct of (1) a control vector (“vector”), (2) a vector encoding a dominant negative Zap70 moiety, as described in Example 2 (“Zap70dnm”), or (3) a vector encoding an endoxifen-responsive dominant negative Zap70 polypeptide, including an ER(T2) domain operatively linked to a dominant negative Zap70 moiety, as described in Example 1 (“Zap70dnm-ER(T2)”). The transient transfections were performed using LTX and PLUS transfection reagent (ThermoFisher Scientific) according to manufacturer's protocols.
Transfected cells were treated in the absence or presence of 1:30 Immunocult™ CD3/CD28/CD2 tetrameric antibody mixture (StemCell Technologies, Canada) (“α-TCR”), which stimulates T cell activity. […]
(§1) After 19 hours, luciferase activity was assayed with Bright-Glo substrate according to manufacturer's protocols (Promega). Luminescence was detected on the Varioskan Lux (ThermoFisher Scientific) plate reader at a 1 second interval. The luminescence was measured and reported in relative light units (RLU). […]

NFAT-Luciferase reporter [2] = test: NFAT-Luciferase reporter assay, endoxifen dose response (Example 4); conditions: Jurkat E6.1 cells, anti-TCR antibody clone 305, endoxifen 0.05-1000 nM, 6 hours
From the text: To examine whether the concentration of endoxifen affected the level of inhibition of T cell activity by an endoxifen-responsive dominant negative Zap-70 polypeptide, Jurkat E6.1 cells (purchased from ATCC (Manassas, Va.)) were transiently transfected with an NFAT-Luciferase reporter construct and a test construct of (1) a vector encoding a dominant negative Zap70 moiety, as described in Example 2 (“Zap70dnm”), or (2) a vector encoding an endoxifen-responsive dominant negative Zap70 polypeptide, including an ER(T2) domain operatively linked to a dominant negative Zap70 moiety, as described in Example 1 (“Zap70dnm-ER(T2)”). The transient transfections were performed using LTX and PLUS transfection reagent (ThermoFisher Scientific) according to manufacturer's protocols.
Transfected cells were treated with an anti-TCR antibody, clone 305, which stimulated T cell activity. […]
as §1, with “6” for “19”

NFAT-Luciferase reporter [3] = test: NFAT-Luciferase reporter assay with ZAP70dn(1-278) constructs (Example 10); conditions: Jurkat E6.1 cells, αTCR+αCD28, with or without endoxifen, compared to empty vector controls
From the text: (§2) To provide a means for assessing immune pathway activity, a construct containing a reporter gene, such as firefly luciferase (Luc), under the control of an NFAT response element can be used, as described, e.g., in Example 3. In the present Example, Jurkat E6.1 cells were transiently transfected with an NFAT-Luciferase reporter construct as well as one of (a) empty vector; (b) an expression construct encoding ZAP70dn(1-278); (c) an expression construct encoding ZAP70dn(1-278)-ER(T2); and (d) an expression construct encoding ZAP70dn(1-278)-ER(T12). Transient transfections were performed using LTX and PLUS transfection reagent (ThermoFisher Scientific) according to manufacturer's protocols.
A first set of transfected cells was treated in the absence or presence of 1:30 dilution of Immunocult CD3/CD28/CD2 tetrameric antibody mixture (StemCell Technologies, Canada), which stimulated T-cell activity. […] Luciferase activity (luminescence) was measured and reported as a percentage induction of NFAT-Luciferase.
A further set of transfected cells was treated in the absence or presence of 0.25 μg/ml C305 (αTCR, Sigma-Aldrich) plus 2 μg/ml αCD28.2 (Biolegend), which stimulated T-cell activity. […] Luciferase activity (luminescence) was measured and reported in relative light units (RLU).

NFAT-Luciferase reporter [4] = test: NFAT-Luciferase reporter assay with LCK(1-266) constructs (Example 11); conditions: Jurkat E6.1 cells, α-CD3 and α-CD28, with or without endoxifen, compared to empty vector controls
From the text: as §2, with “assessing T cell” for “assessing immune pathway”, “reporter construct,” for “reporter construct”, “empty vector control;” for “empty vector;”, “encoding LCK(1-266); and” for “encoding ZAP70dn(1-278);”, “encoding LCK(1-266)-ER(T12).” for “encoding ZAP70dn(1-278)-ER(T2); and (d) an expression construct encoding ZAP70dn(1-278)-ER(T12).”
Transfected cells were treated in the absence or presence of 1:80 dilution of Immunocult CD3/CD28 tetrameric antibody mixture (StemCell Technologies, Canada), which stimulated T-cell activity. Stimulated cells were then further treated with RPMI 1640 media plus 4.8% FBS stripped with charcoal dextran (ThermoFisher Scientific), either without Z-endoxifen or with 100 nM Z-endoxifen (Axon-Medchem). Luciferase activity (luminescence) was measured and reported as percent induction of NFAT-Luciferase.

B1: Zap70dnm: polypeptide including a nuclear export signal and a dominant negative Zap-70 moiety, SEQ ID NO: 10 (protein)
chain: MNELALKLAGLDINKTMPDPAAHLPFFYGSISRAEAEEHLKLAGMADGLFLLRQCLRSLGGYVLSLVHDVRFHHFPIERQLNGTYAIAGGKAHCGPAELCEFYSRDPDGLPCNLRKPCNRPSGLEPQPGVFDCLRDAMVRDYVRQTWKLEGEALEQAIISQAPQVEKLIATTAHERMPWYHSSLTREEAERKLYSGAQTDGKFLLRPRKEQGTYALSLIYGKTVYHYLISQDKAGKYCIPEGTKFDTLWQLVEYLKLKADGLIYCLKEACPNSSASNASGAAAPTLPAHPSTLT
B1 was tested, and the “luciferase expression from the NFAT-luciferase construct” value (from here on “luciferase expression”) (NFAT-Luciferase reporter [1]; vehicle (not treated with α-TCR or endoxifen)) was “no luciferase expression was detected”, the “luciferase expression” value (NFAT-Luciferase reporter [1]; α-TCR plus 100 nM endoxifen, 19 hours) was “low and nearly equivalent to the luciferase expression observed from sample 5” and the “luciferase expression” value (NFAT-Luciferase reporter [1]; α-TCR, no endoxifen, 19 hours) was “low”. The “luciferase expression” value (NFAT-Luciferase reporter [2]) was “low”.

B2: ZAP70dn(1-278): dominant negative signaling moiety, ZAP70 amino acids 1-278, lacks a functional kinase domain, SEQ ID NO: 2 (protein)
chain: MPDPAAHLPFFYGSISRAEAEEHLKLAGMADGLFLLRQCLRSLGGYVLSLVHDVRFHHFPIERQLNGTYAIAGGKAHCGPAELCEFYSRDPDGLPCNLRKPCNRPSGLEPQPGVFDCLRDAMVRDYVRQTWKLEGEALEQAIISQAPQVEKLIATTAHERMPWYHSSLTREEAERKLYSGAQTDGKFLLRPRKEQGTYALSLIYGKTVYHYLISQDKAGKYCIPEGTKFDTLWQLVEYLKLKADGLIYCLKEACPNSSASNASGAAAPTLPAHPSTLT
B2 was tested, and the “luciferase reporter expression (RLU)” value (NFAT-Luciferase reporter [3]) was “substantially reduced expression of luciferase reporter”.

B3: LCK(1-266): dominant negative LCK signaling moiety, SEQ ID NO: 17 (protein)
chain: MGCGCSSHPEDDWMENIDVCENCHYPIVPLDGKGTLLIRNGSEVRDPLVTYEGSNPPASPLQDNLVIALHSYEPSHDGDLGFEKGEQLRILEQSGEWWKAQSLTTGQEGFIPFNFVAKANSLEPEPWFFKNLSRKDAERQLLAPGNTHGSFLIRESESTAGSFSLSVRDFDQNQGEVVKHYKIRNLDNGGFYISPRITFPGLHELVRHYTNASDGLCTRLSRPCQTQKPQKPWWEDEWEVPRETLKLVERLGAGQFGEVWMGYYNG
B3 was tested, and the “luciferase reporter expression (percent induction of NFAT-Luciferase)” value (NFAT-Luciferase reporter [4]) was “substantially reduced expression of luciferase reporter”.
